Paper PMC7864079, “Molecular basis for histone H3 “K4me3-K9me3/2” methylation pattern readout by Spindlin1” (The Journal of Biological Chemistry, 2021)

Biological target: T1, Spindlin1_50–262 (Homo sapiens, UniProt Q9Y657)
T1 construct: The Spindlin1_50–262 samples were dialyzed against the buffer; GST (N, cleaved yes); made in house; host or cells: Escherichia coli BL21 (DE3)
Experiment: Thermal shift assay (TSA), Spindlin1_50–262 mixed with histone H3 peptides
Type: binding
Conditions: the row's label is the comparator peptide
Description: Recombinant proteins were overexpressed in Escherichia coli BL21 (DE3) strain. […] After cell lysis and centrifugation, the supernatant was loaded onto a GST affinity column and washed with lysis buffer. Then the bound proteins were subjected to on-column cleavage by PreScission Protease overnight. […] Purified peak fractions were concentrated to 25 mg/ml in 150 mM NaCl, 20 mM Tris, pH 8.0, aliquoted, and stored at −80°C for future use. The TSA was performed with a CFX96 real-time PCR instrument (Bio-Rad). […] All solutions were prepared in 25 µl of the same buffer (20 mM Hepes Na, pH 7.5, 150 mM NaCl) and incubated at 4°C for 1 h. During TSA assays, samples were heated from 25°C to 90°C at a rate of 0.5°C per minute. Protein denaturation progress was monitored by increased fluorescence signal of Sypro Orange, which captures the exposure of the protein hydrophobic core during thermal unfolding. Changes in the fluorescence signal were recorded and analyzed by the software CFX-Manager (Bio-Rad). When 50% of the protein is denatured, the folding and unfolding states of the protein are in dynamic equilibrium, and the corresponding temperature is the protein's melting temperature.

T1 sequence (Q9Y657 50-262): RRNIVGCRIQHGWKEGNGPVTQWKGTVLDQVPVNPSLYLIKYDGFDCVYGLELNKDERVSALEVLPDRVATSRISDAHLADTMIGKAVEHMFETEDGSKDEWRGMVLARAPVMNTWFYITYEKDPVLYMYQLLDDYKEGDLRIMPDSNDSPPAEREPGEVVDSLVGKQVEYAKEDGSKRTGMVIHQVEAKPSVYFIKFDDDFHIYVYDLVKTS

Row | amount by which the Tm with H3_1–20 “K4me3-K9me3” ([…]) is greater than the Tm with this peptide [°C] | Substance
1 | 12.0 | H3_1–20 K9me3: synthetic histone H3 residues 1–20 peptide with K9me3
2 | 15.0 | unmodified H3_1–20: unmodified synthetic histone H3 residues 1–20 peptide
